From US20240360242A1 (KISOJI BIOTECHNOLOGY, published 2024)
Like-named read-outs stand apart in the source and are kept apart here.

T1: recombinant human TROP2 extracellular domain (aa 1-274) comprising His tag (human, UniProt P09758 27-274)
T1 construct: Used here for all assays on recombinant human TROP2 (ELISA, immunoblot, SPR, crystal), although only some of them name the catalogue number; also called human recombinant TROP2; recombinant human TROP2 protein; not shown: His tag
T1 sequence: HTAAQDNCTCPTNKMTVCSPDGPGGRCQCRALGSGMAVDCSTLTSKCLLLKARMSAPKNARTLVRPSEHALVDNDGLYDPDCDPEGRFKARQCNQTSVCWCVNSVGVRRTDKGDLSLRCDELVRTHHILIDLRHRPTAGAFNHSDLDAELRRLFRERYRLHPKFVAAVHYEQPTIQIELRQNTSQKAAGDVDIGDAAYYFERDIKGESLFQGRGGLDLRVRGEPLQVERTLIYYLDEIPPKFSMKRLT


Key:
[1] = target: T1, recombinant human TROP2 extracellular …; test: ELISA on coated recombinant human TROP2, 0.00256-200 nM, RLU
Protocol: (§1) Human TROP2 recombinant proteins were coated on 96-well ELISA plates at the concentration of 1 μg/mL. Plates were covered with adhesive plate cover and stored at 4° C. overnight. The next day, plates were washed 3× with washing buffer (PBS with 0.1% Tween™ 20). Plates were blocked with 2% fat-free BSA in washing buffer for 1 hour at 37° C. During the incubation time, the TROP2 reference antibodies, as well as the humanized variants, were diluted in the blocking buffer to the indicated concentrations. […] After blocking, the blocking buffer was removed from the wells and 100 μL of anti-TROP2 sdAbs dilutions were transferred to the corresponding wells. Plates were covered with adhesive plates cover and incubated at 37° C. for 1 hour. During the primary antibody incubation, the secondary antibody (goat anti-human IgG, HRP conjugated) was diluted 1 in 5000 with the blocking buffer. Plates were washed 3× with blocking buffer, followed by secondary antibody incubation for another 1 hour at 37° C. After the secondary antibody incubation, plates were washed 3× with washing buffer and added with 100 μL of ELISA chemiluminescent substrate (Thermofisher). The luminescence signal was detected by SpectraMax i3x at […].

[2] = target: T1, recombinant human TROP2 extracellular …; test: ELISA, coated rh TROP2
Protocol: as §1

[3] = target: T1, recombinant human TROP2 extracellular …; test: ELISA, coated rh TROP2; remark: listed apart in the source
Protocol: as §1

[4] = target: T1, recombinant human TROP2 extracellular …; test: ELISA, coated rh TROP2, normalized to KD005

Binder | binding result [1] | EC50 [2] | EC50 [3] | EC50% to KD005 [3] | EC50 relative to KD005 [4]
KD039 (antibody, V domains shown, KD002 humanized variant) VH: QVQLQESGGGMVQPGGSLRLSCAASGFPFSSADMSWVRQAPGKGLEWVSYINADGSKTYYADTVKGRFTISRDNSKNTLYLQMNSLRAEDTAVYRCARAKLTDTHYVEDYWGQGTQVTVSS |  | 0.15 nM |  |  | 
KD038 (antibody, V domains shown, KD002 humanized variant) VH: QVQLQESGGGLVQPGGSLRLSCAASGFPFSSADMSWVRQAPGKGLEWVSYINADGSKTYYADTVKGRFTISRDNSKNTLYLQMNSLRAEDTALYRCARAKLTDTHYVEDYWGQGTMVTVSS |  | 0.26 nM |  |  | 
KD042 (antibody, V domains shown, KD002 humanized variant) VH: QVQLQESGGGLVQPGGSLRLSCAASGFPFSSADMSWVRQAPGKGLEWVSYINANGSKTYYADTVKGRFTISRDNSKNTLYLQMNSLRAEDTAVYRCARAKLTDTHYVEDYWGQGTMVTVSS |  | 0.07 nM |  |  | 
KD040 (antibody, V domains shown, KD002 humanized variant) VH: QVQLQESGGGLVQPGGSLRLSCAASGFPFSSADMSWVRQAPGKQREWVSYINADGSKTYYADTVKGRFTISRDNSKNTLYLQMNSLRAEDTAVYRCARAKLTDTHYVEDYWGQGTMVTVSS |  | 0.05 nM |  |  | 
KD037 (antibody, V domains shown, KD002 humanized variant) VH: QVQLQESGGGLVQPGGSLRLSCAASGFPFSSADMSWVRQAPGKGLEWVSYINADGSKTYYADTVKGRFTISRDNSKNTLYLQMNNLRAEDTAVYRCARAKLTDTHYVEDYWGQGTMVTVSS |  | 0.18 nM |  |  | 
KD041 (antibody, V domains shown, KD002 humanized variant) VH: QVQLQESGGGLVQPGGSLRLSCAASGFPFSSADMSWVRQAPGKGLEWVSYINAEGSKTYYADTVKGRFTISRDNSKNTLYLQMNSLRAEDTAVYRCARAKLTDTHYVEDYWGQGTMVTVSS |  | 0.15 nM |  |  | 
KD054 (antibody, V domains shown, KD005 humanized variant) VH: QVQLQESGGGLIQPGGSLRLSCAASGFTFSGSDMSWVRQAPGKGLEWVSYITSGGTTYYADTVKGRFTISRDNSKNTLYLQMNSLRAEDTAVYRCAKSRLTDSHYVEDAWGQGTLVTVSS |  |  | 0.07 nM | 0.875 ratio to KD005 | 0.93 ratio to KD005
KD043 (antibody, V domains shown, KD005 humanized variant) VH: EVQLLESGGGLVQPGGSLRLSCAASGFTFSGSDMSWVRQAPGKGLEWVSAITSGGTTYYADTVKGRFTISRDNSKNTLYLQMNSLRAEDTAVYYCAKSRLTDSHYVEDAWGQGTLVTVSS |  |  | 0.09 nM | 1.12 ratio to KD005 | 1.01 ratio to KD005
KD046 (antibody, V domains shown, KD005 humanized variant) VH: QVQLLESGGGLVQPGGSLRLSCAASGFTFSGSDMSWVRQAPGKGPEWVSYITSGGTTYYADTVKGRFTISRDNSKNTLYLQMNSLRAEDTAVYYCAKSRLTDSHYVEDAWGQGTLVTVSS |  |  | 0.08 nM | 1 ratio to KD005 | 0.9 ratio to KD005
KD044 (antibody, V domains shown, KD005 humanized variant) VH: EVQLLESGGGLVQPGGSLRLSCAASGFTFSGSDMSWVRQAPGKGLEWVSYITSGGTTYYADTVKGRFTISRDNSKNTLYLQMNSLRAEDTAVYYCAKSRLTDSHYVEDAWGQGTLVTVSS |  |  | 0.08 nM | 1 ratio to KD005 | 0.9 ratio to KD005
KD045 (antibody, V domains shown, KD005 humanized variant) VH: EVQLLESGGGLVQPGGSLRLSCAASGFTFSGSDMSWVRQAPGKGLEWVSYITSGGTTYYADTVKGRFTISRDNSKNTLYLQMNSLRAEDTAVYRCAKSRLTDSHYVEDAWGQGTLVTVSS |  |  | 0.09 nM | 1.12 ratio to KD005 | 1.01 ratio to KD005

Continued, values first:

binding result [1] | EC50 [2] | EC50 [3] | EC50% to KD005 [3] | EC50 relative to KD005 [4] | Binder
binds |  |  |  |  | KD020 (antibody, V domains shown, KD002 humanized variant) VH: EVQLVESGGGLVQPGGSLRLSCAASGFPFSSADMHWVRQAPGKGLVWVSRINADGSKTSYADTVKGRFTISRDNAKNTLYLQMNSLRAEDTAVYYCARAKLTDTHYVEDYWGQGTLVTVSS
 |  | 0.09 nM | 1.12 ratio to KD005 | 1.15 ratio to KD005 | KD057 (antibody, V domains shown, KD005 humanized variant) VH: QVQLQESGGGLIQPGGSLRLSCAASGFTFSGSDMSWVRQAPGKGLEWVSVITSGGTTYYADTVKGRFTISRDNSKNTLYLQMNSLRAEDTAVYRCAKSRLTDSHYVEDAWGQGTLVTVSS
 |  | 0.07 nM | 0.875 ratio to KD005 | 0.93 ratio to KD005 | KD052 (antibody, V domains shown, KD005 humanized variant) VH: EVQLVESGGGLIQPGGSLRLSCAASGFTFSGSDMSWVRQAPGKGLEWVSVITSGGTTYYADTVKGRFTISRDNSKNTLYLQMNSLRAEDTAVYYCAKSRLTDSHYVEDAWGQGTLVTVSS
 |  | 0.08 nM | 1 ratio to KD005 | 1.12 ratio to KD005 | KD055 (antibody, V domains shown, KD005 humanized variant) VH: EVQLQESGGGLIQPGGSLRLSCAASGFTFSGSDMSWVRQAPGKGLEWVSYITSGGTTYYADTVKGRFTISRDNSKNTLYLQMNSLRAEDTAVYRCAKSRLTDSHYVEDAWGQGTLVTVSS
 |  | 0.09 nM | 1.12 ratio to KD005 | 1.21 ratio to KD005 | KD056 (antibody, V domains shown, KD005 humanized variant) VH: QVQLVESGGGLIQPGGSLRLSCAASGFTFSGSDMSWVRQAPGKGLEWVSYITSGGTTYYADTVKGRFTISRDNSKNTLYLQMNSLRAEDTAVYRCAKSRLTDSHYVEDAWGQGTLVTVSS
 |  | 0.1 nM | 1.25 ratio to KD005 | 1.12 ratio to KD005 | KD050 (antibody, V domains shown, KD005 humanized variant) VH: QVQLQESGGGLVQPGGSLRLSCAASGFTFSGSDMSWVRQAPGKGPEWVSYITSGGTTYYPDTVKGRFTISRDNSKNTLYLQMNSLKPDDTAVYRCAKSRLTDSHYVEDAWGQGTQVTVSS
